Measurements: patent publication US20070077603A1 (published 2007)

What was measured:
Assay in all cases: ligand blot from native 4-15% PAGE of Sephacryl-300 fractions of hirudin-plasma
[1] = target: T1, monomeric protein S in plasma (human, UniProt P07225 42-676)
T1 construct: mature; also called monomers
T1 sequence (looked up): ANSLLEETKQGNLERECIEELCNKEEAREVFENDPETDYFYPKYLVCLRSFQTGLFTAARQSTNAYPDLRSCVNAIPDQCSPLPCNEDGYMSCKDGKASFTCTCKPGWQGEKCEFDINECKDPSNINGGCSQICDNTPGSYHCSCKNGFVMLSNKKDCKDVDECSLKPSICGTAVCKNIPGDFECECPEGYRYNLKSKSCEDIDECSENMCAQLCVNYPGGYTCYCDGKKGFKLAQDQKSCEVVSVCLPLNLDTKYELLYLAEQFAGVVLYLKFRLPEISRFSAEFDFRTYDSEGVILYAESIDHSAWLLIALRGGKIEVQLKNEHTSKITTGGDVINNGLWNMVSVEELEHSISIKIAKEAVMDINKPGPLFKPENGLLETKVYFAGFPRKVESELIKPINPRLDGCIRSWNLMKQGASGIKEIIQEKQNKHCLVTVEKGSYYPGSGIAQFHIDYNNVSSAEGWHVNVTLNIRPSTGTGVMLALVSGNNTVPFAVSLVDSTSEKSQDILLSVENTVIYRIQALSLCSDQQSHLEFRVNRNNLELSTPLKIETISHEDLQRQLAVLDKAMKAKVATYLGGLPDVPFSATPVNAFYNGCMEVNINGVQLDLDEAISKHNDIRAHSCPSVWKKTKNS
Experimental: (§1) Gel filtration - - - Purified protein S preparations or hirudin-plasma (200 μl ) were fractionated on a 1×30 cm Superose-6 HR column using Fast Performance Liquid Chromatography (Amersham-Pharmacia, Piscattaway, N.J.) at a flow rate of 0.4 ml/min in Hepes-buffered saline (HBS). Hirudin and citrated plasmas (300 ul) were each mixed with 700 μl of 50 mM benzamidine and fractionated on a 1.6×60 cm Sephacryl-300 column at a flow rate of 0.4 ml/min in Tris-buffered saline. Fractions were analyzed for protein S antigen by ELISA, for protein S multimers by native PAGE, and for PS-direct. ELISAs were also performed on the fractions for FV, FX, and C4BP antigens
(§2) To further separate protein S forms in plasma, hirudin-plasma and citrated plasma were each subjected to gel filtration on a larger column (FIGS. 8B and 8C). […] Biotin-FXa could ligand blot (Heeb, et al. Protein S binds to and inhibits factor Xa. Proc Natl Acad Sci USA. 1994;91:2728-2732) to PS-C4BP, multimeric and monomeric protein S in fractionated hirudin plasma (FIG. 8C).

[2] = target: T2, multimeric protein S in plasma (human, UniProt P07225 42-676)
T2 construct: mature; also called protein S multimers in plasma; putative protein S multimers
T2 sequence (looked up): T1 sequence (looked up)
Experimental: as §1, §2

[3] = target: T3, Protein S-C4b-binding protein complex in fractionated hirudin-plasma (human, UniProt P07225 42-676; P04003 49-597; P20851 18-252)
T3 construct: Native complex from plasma; also called PS-C4BP; Cx
T3 sequence (looked up) 1: T1 sequence (looked up)
T3 sequence (looked up) 2: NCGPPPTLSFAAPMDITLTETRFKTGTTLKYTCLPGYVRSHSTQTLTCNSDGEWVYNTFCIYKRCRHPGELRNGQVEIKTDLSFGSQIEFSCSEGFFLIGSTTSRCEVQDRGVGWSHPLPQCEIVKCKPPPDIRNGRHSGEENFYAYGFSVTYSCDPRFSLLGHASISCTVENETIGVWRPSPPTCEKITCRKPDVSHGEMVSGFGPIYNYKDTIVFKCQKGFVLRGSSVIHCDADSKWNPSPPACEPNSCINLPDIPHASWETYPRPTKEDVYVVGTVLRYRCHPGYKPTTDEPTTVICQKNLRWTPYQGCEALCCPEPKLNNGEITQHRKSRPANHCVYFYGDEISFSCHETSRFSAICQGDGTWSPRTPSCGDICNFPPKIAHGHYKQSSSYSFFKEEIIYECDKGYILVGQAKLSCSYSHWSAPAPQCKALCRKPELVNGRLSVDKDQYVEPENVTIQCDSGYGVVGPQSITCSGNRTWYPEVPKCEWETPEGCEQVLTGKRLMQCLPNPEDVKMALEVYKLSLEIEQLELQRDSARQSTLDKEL
T3 sequence (looked up) 3: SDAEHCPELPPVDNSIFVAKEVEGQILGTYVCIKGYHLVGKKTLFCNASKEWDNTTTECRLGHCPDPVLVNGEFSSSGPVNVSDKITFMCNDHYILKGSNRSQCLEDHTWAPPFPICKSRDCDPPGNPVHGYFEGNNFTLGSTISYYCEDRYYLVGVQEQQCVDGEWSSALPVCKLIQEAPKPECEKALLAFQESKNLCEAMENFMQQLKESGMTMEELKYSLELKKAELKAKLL
Experimental: as §1, §2

Measured: binding result

B1: Biotin-FX (other)
chain 1: ANSFLEEMKKGHLERECMEETCSYEEAREVFEDSDKTNEFWNKYKDGDQCETSPCQNQGKCKDGLGEYTCTCLEGFEGKNCELFTRKLCSLDNGDCDQFCHEEQNSVVCSCARGYTLADNGKACIPTGPYPCGKQTLER
chain 2: SVAQATSSSGEAPDSITWKPYDAADLDPTENPFDLLDFNQTQPERGDNNLTRIVGGQECKDGECPWQALLINEENEGFCGGTILSEFYILTAAHCLYQAKRFKVRVGDRNTEQEEGGEAVHEVEVVIKHNRFTKETYDFDIAVLRLKTPITFRMNVAPACLPERDWAESTLMTQKTGIVSGFGRTHEKGRQSTRLKMLEVPYVDRNSCKLSSSFIITQNMFCAGYDTKQEDACQGDSGGPHVTRFKDTYFVTGIVSWGEGCARKGKYGIYTKVTAFLKWIDRSMKTRGLPKAKSHAPEVITSSPLK
modifications: biotinylated (sites not given)
no binding: all assays above
